“Also recorded” adds a separate entry of the source. Like-named read-outs stand apart in the source and are kept apart here.
Columns and labels:
[1] = system: Phl p 5b-reactive T cell lines (TCLs) from allergic patients; test: Proliferative reaction of Phl p 5b-reactive oligoclonal T cell lines ([3H]-thymidine incorporation); assay type: cell-based, human; details: for Incorporation of [3H]-thymidine into TCL 5 17.4 (stimulation index class): primary stimulator r Phl p 5; for Incorporation of [3H]-thymidine into TCL 6 Mah (stimulation index class): primary stimulator r Phl p 5a, r Phl p 5b; for Incorporation of [3H]-thymidine into TCL 7 19.2 (stimulation index class) / Incorporation of [3H]-thymidine into TCL 8 20.1 (stimulation index class): primary stimulator r Phl p 5b
Method: In the second phase, oligoclonal T cell lines, which have been established by repeated stimulation with the relevant allergens, are employed for the testing. Once again, only those modified recombinant allergens which at least give rise to a stimulation index (SI) of 50% of the SI of the wild type are taken into consideration.
40 ml of heparinized blood were obtained from each patient. Peripheral mononuclear cells (PBMC) were then isolated from this blood sample by means of the customary method using density gradient centrifugation. Analogous cell isolations were carried out at a later stage when it was necessary to obtain irradiated autologous antigen-presenting cells (APC) for characterizing the TCL and TCC further. After the PBMC had been counted, TCL which reacted to group 5 allergens in vitro were established as follows and as has already been described in detail elsewhere (Lit. 1): in each well of 24-well microculture plates, from 1.5 to 2.0×10^6 PBMC in 1 ml of culture medium (UltraCulture) were stimulated for 7 days in the added presence of natural Phl p5 allergens (in each case 10 μg/well) which had been purified by immunoaffinity chromatography. A total of from 8 to 10 of these cultures were set up. The isolation of Phl p5 by means of immunoaffinity chromatography has been described in detail (Lit. 2). At the end of the 7 days of culture, IL-2 (from 10 to 20 IU/well) was added to the cell cultures for a further 5 to 7 days. All the individual cultures were then pooled and the T cell blasts were enriched by means of density gradient centrifugation; the TCL which were obtained were then tested in a specific lymphocyte proliferation test (see Lit. 1 as well). For this, 2×10^4/ml TCL blasts were in each case cultured with 5×10^4/ml irradiated autologous APCs in triplicate samples in 96-well microculture plates. 10-20 μg of Phl p5 allergen were added as the specific antigen stimulus. After 56 hours of incubation, ^3H-labelled thymidine (1 μCi/well) was pipetted into the microcultures. After a further 16 hours, the radioactivity which had been incorporated into the proliferating T cell blasts was measured in a beta counter (Matrix 96). The results were calculated, as the arithmetic mean of the multiple samples, in counts per minute (cpm). The criterion for the quality of the TCL was the stimulation index, which was obtained by relating the cpm values with Phl p5 addition to those without Phl p5 addition.
The oligoclonal T cell lines (TCLs) from 8 patients who were allergic to grass pollen (see Ex. 1) were established by repeated activation with natural Ph1 p 5b (a+b) or recombinant rPh1 p 5b or 5a+5b.
The proliferative reaction of these TCLs was tested using the rPh1 p 5b mutants (FIG. 10).

[2] = target: IgE antibodies of the individual allergic patient serum II/17; test: EAST inhibition, individual serum II/17
[3] = target: IgE antibodies of the individual allergic patient serum II/3; test: EAST inhibition, individual serum II/3
[4] = target: IgE antibodies of the allergic patient serum pool We 6/97; test: EAST inhibition, serum pool We 6/97
[5] = system: IgE antibodies of allergic patients; test: EAST inhibition test (IgE reactivity / allergenicity); assay type: binding, human; details: for Allergenicity / IgE reactivity, overall assessment (in words): all serum pools and individual sera, Prel values; for IC50: read-out: Inhibition value 50% (concentration of the inhibitor at 50% inhibition); for Allergenic potency (Prel) 25%: relative to native Phl p 5b at 25% inhibition; for Allergenic potency (Prel) 50%: relative to native Phl p 5b at 50% inhibition; for EAST inhibition curve / inhibitory effect (in words): serum pool Bor 18/100 (20 donors), FIG. 1; for Allergenicity from EAST inhibition curves (in words): serum pool We 6/97 and individual sera II3, II12, II17, FIGS. 2-5
Method: The effects of the induced mutations on the allergenicity, i.e. the ability to bind to the IgE antibodies of allergic patients, of the modified recombinant allergens is determined qualitatively and quantitatively by means of the EAST inhibition test. […] The extent of the immunochemical relatedness (cross reactivity) can also be quantified. This EAST inhibition test only takes the reaction with IgE antibodies into account.
The binding of the allergens by the IgE antibodies is the basic prerequisite for the allergen-specific activation of the effector cells (mast cells, basophils, inter alia) in type I allergy. The allergen-specific inhibition of the enzyme/allergen sorbent test (EAST) is the best means for qualitatively and quantitatively recording the binding of the allergens to IgE anti-bodies. The EAST inhibition test is carried out as follows. Microtitre plates are coated with allergen (natural or recombinant Ph1 p 5 or Ph1 p 5b) (1 μg/ml). After the unbound allergen molecules have been removed by washing, non-specific plastic binding sites are blocked with bovine serum albumin (0.5%). […] from allergic patients, as a representative pool of 10-30 donors or as an individual serum, is incubated, in a suitable dilution, with the allergen-coated microtritre plates. The bound allergen-specific IgE antibodies are quantified using enzyme-coupled anti-IgE antibodies (e.g. alk. phosphatase-a-IgE antibodies). This binding is inhibited by soluble allergen or the substance to be tested (allergen mutants) in dependence on the concentration. The inhibition curve obtained with the purified natural allergen Ph1 p 5b is used as the reference.

[6] = target: IgE antibodies of the allergic patient serum pool Bor 18/100 (20 donors); test: EAST inhibition, serum pool Bor 18/100
[7] = primary stimulator n Phl p 5, secondary activator 0.3 μM
[8] = allergic patient serum pool Bor 18/100
[9] = allergic patient serum pool We 6/97
[10] = individual allergic patient serum II/3
[11] = individual allergic patient serum II/12
[12] = individual allergic patient serum II/17

B1: rPhl p 5b deletion mutant DM3 (deletion A154-T177, A220T) (protein)
chain: ADAGYAPATPAAAGAAAGKATTEEQKLIEDINVGFKAAVAAAASVPAADKFKTFEAAFTSSSKAAAAKAPGLVPKLDAAYSVAYKAAVGATPEAKFDSFVASLTEALRVIAGALEVHAVKPVTEEPGMAKIPAGELQIIDKIDAAFKVAATAAGGAYDTYKCIPSLEAAVKQAYAATVAAAPQVKYAVFEAALTKTITAMSEVQKVSQPATGAATVAAGAATTAAGAASGAATVAAGGYKV
[1]; TCLs from 8 patients allergic to grass pollen
  Proliferative reaction of TCLs (in words): strong specific stimulation with most of the TCLs
[1]; [7]
  Incorporation of [3H]-thymidine into TCL 2 Eic (stimulation index class): + (1-2 (+))
  Incorporation of [3H]-thymidine into TCL 4 Mer (stimulation index class): ++ (5-10 (++))
[1]; secondary activator 0.3 μM
  Incorporation of [3H]-thymidine into TCL 5 17.4 (stimulation index class): ++ (5-10 (++))
  Incorporation of [3H]-thymidine into TCL 6 Mah (stimulation index class): +++ (>10 (+++))
  Incorporation of [3H]-thymidine into TCL 7 19.2 (stimulation index class): +++ (>10 (+++))
  Incorporation of [3H]-thymidine into TCL 8 20.1 (stimulation index class): +++ (>10 (+++))
[2]
  IC50: 0.05 µM
  allergenic potency (Prel) at 25% inhibition (relative to native Phl p 5b): 0.038
  allergenic potency (Prel) at 50% inhibition (relative to native Phl p 5b): 0.0005
  inhibition value (inhibitor concentration at 25% inhibition): 5.6e-09 mol/L
[3]
  IC50: 32000 µM
  allergenic potency (Prel) at 25% inhibition (relative to native Phl p 5b): 0.0004
  allergenic potency (Prel) at 50% inhibition (relative to native Phl p 5b): 1.8e-07
  inhibition value (inhibitor concentration at 25% inhibition): 1.1e-06 mol/L
[4]
  IC50: 0.029 µM
  allergenic potency (Prel) at 25% inhibition (relative to native Phl p 5b): 0.099
  allergenic potency (Prel) at 50% inhibition (relative to native Phl p 5b): 0.002
  inhibition value (inhibitor concentration at 25% inhibition): 5.1e-09 mol/L
[5]
  Allergenicity / IgE reactivity, overall assessment (in words): marked reduction in allergenicity; also recorded: greatly reduced, it is still detectable
  EAST inhibition curve / inhibitory effect (in words): markedly decreased inhibitory effect
  Allergenicity from EAST inhibition curves (in words): greatly reduced allergenicity
[5]; [8]
  Inhibition value 25% (concentration of the inhibitor at 25% inhibition): 1.2e-09 mol/L
  IC50: 4.1 µM
[5]; [9]
  Inhibition value 25% (concentration of the inhibitor at 25% inhibition): 5.1e-09 mol/L
  IC50: 0.029 µM
[5]; [10]
  Inhibition value 25% (concentration of the inhibitor at 25% inhibition): 1.1e-06 mol/L
  IC50: 32000 µM
[5]; [11]
  Inhibition value 25% (concentration of the inhibitor at 25% inhibition): 4.5e-09 mol/L
  IC50: 100 µM
[5]; [12]
  Inhibition value 25% (concentration of the inhibitor at 25% inhibition): 5.6e-09 mol/L
  IC50: 0.05 µM
[5]; individual serum II/3
  Allergenic potency (Prel) 25%: 0.0004
  Allergenic potency (Prel) 50%: 1.8 × 10^−7
[5]; individual serum II/12
  Allergenic potency (Prel) 25%: 0.012
  Allergenic potency (Prel) 50%: 5.7 × 10^−5
[5]; individual serum II/17
  Allergenic potency (Prel) 25%: 0.038
  Allergenic potency (Prel) 50%: 0.0005
[5]; serum pool Bor 18/100
  Allergenic potency (Prel) 25%: 0.028
  Allergenic potency (Prel) 50%: 0.0001
[5]; serum pool We 6/97
  Allergenic potency (Prel) 25%: 0.099
  Allergenic potency (Prel) 50%: 0.0020
[6]
  IC50: 4.1 µM
  allergenic potency (Prel) at 25% inhibition (relative to native Phl p 5b): 0.028
  allergenic potency (Prel) at 50% inhibition (relative to native Phl p 5b): 0.0001
  inhibition value (inhibitor concentration at 25% inhibition): 1.2e-09 mol/L

B2: DM1: deletion mutant of rPhl p 5b (ΔK50-P132, D49→L), SEQ ID NO 91 (protein)
chain: ADAGYAPATPAAAGAAAGKATTEEQKLIEDINVGFKAAVAAAASVPAALAGELQIIDKIDAAFKVAATAAATAPADDKFTVFEAAFNKAIKESTGGAYDTYKCIPSLEAAVKQAYAATVAAAPQVKYAVFEAALTKAITAMSEVQKVSQPATGAATVAAGAATTAAGAASGAATVAAGGYKV
[1]; [7]
  Incorporation of [3H]-thymidine into TCL 2 Eic (stimulation index class): + (1-2 (+))
  Incorporation of [3H]-thymidine into TCL 3 Fre (stimulation index class): + (1-2 (+))
  Incorporation of [3H]-thymidine into TCL 4 Mer (stimulation index class): + (1-2 (+))
[1]; secondary activator 0.3 μM
  Incorporation of [3H]-thymidine into TCL 5 17.4 (stimulation index class): + (1-2 (+))
  Incorporation of [3H]-thymidine into TCL 6 Mah (stimulation index class): ++ (5-10 (++))
  Incorporation of [3H]-thymidine into TCL 7 19.2 (stimulation index class): +++ (>10 (+++))
  Incorporation of [3H]-thymidine into TCL 8 20.1 (stimulation index class): +++ (>10 (+++))
[5]
  Allergenicity / IgE reactivity, overall assessment (in words): marked reduction in allergenicity; also recorded: greatly reduced, it is still detectable
  EAST inhibition curve / inhibitory effect (in words): markedly decreased inhibitory effect
  Allergenicity from EAST inhibition curves (in words): greatly reduced allergenicity
[5]; [8]
  Inhibition value 25% (concentration of the inhibitor at 25% inhibition): 8.6e-09 mol/L
  IC50: 0.028 µM
[5]; [9]
  Inhibition value 25% (concentration of the inhibitor at 25% inhibition): 2.3e-08 mol/L
  IC50: 17 µM
[5]; [10]
  Inhibition value 25% (concentration of the inhibitor at 25% inhibition): 1.2e-08 mol/L
  IC50: 0.017 µM
[5]; [11]
  Inhibition value 25% (concentration of the inhibitor at 25% inhibition): 1.5e-05 mol/L
[5]; [12]
  Inhibition value 25% (concentration of the inhibitor at 25% inhibition): 6.5e-09 mol/L
  IC50: 0.002 µM
[5]; individual serum II/3
  Allergenic potency (Prel) 25%: 0.0420
  Allergenic potency (Prel) 50%: 0.0035
[5]; individual serum II/12
  Allergenic potency (Prel) 25%: 3.4 × 10^−5
  Allergenic potency (Prel) 50%: 1.0 × 10^−10
[5]; individual serum II/17
  Allergenic potency (Prel) 25%: 0.033
  Allergenic potency (Prel) 50%: 0.0010
[5]; serum pool Bor 18/100
  Allergenic potency (Prel) 25%: 0.039
  Allergenic potency (Prel) 50%: 0.0015
[5]; serum pool We 6/97
  Allergenic potency (Prel) 25%: 0.022
  Allergenic potency (Prel) 50%: 0.0004

Source: patent US6919086B1, “Graminae pollen allergen mutants for specific immunotherapy, and production and use of the same” (Merck Patent Gesellschaft mit, priority 1997, dated 2005)
